Data: patent US20210032299A1 (Eli Lilly, published 2021)
Starred links: 1 amine or outer side, 2 acyl side, 3 side chain; linkers in the order of their positions; H or OH if unused. Non-standard residues stand in square brackets, D forms with d. Groups on a side chain read outwards from the residue. No end group written: not given here. *: point of attachment. C20 diacid = O=C(O)CCCCCCCCCCCCCCCCCCC(=O)*; γGlu = O=C(O)[C@H](CCC(=O)[*:2])N[*:1]; 4Pal = N[C@@H](Cc1ccncc1)C(=O)O; αMeL = CC(C)C[C@](C)(N)C(=O)O; Orn = NCCC[C@H](N)C(=O)O; AEEA = NCCOCCOCC(=O)O; Aib = CC(C)(N)C(=O)O

T1: human glucose-dependent insulinotropic peptide receptor (human, UniProt P48546 22-466)
T1 sequence (looked up): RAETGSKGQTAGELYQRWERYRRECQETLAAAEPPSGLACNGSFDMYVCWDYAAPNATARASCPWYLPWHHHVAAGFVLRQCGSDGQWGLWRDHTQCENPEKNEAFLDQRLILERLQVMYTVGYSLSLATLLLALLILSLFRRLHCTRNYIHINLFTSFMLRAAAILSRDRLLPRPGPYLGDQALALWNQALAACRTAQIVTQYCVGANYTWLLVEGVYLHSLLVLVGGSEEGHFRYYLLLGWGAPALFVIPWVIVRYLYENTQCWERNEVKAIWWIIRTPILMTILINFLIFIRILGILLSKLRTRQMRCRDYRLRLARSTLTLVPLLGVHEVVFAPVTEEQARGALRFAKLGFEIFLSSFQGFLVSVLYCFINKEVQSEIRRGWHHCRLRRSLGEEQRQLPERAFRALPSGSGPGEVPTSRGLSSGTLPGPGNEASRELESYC

B1: Example 83 (peptide)
peptide: Y[Aib]EGTFISDYSI[αMeL]LDEK([AEEA-AEEA-γGlu-C20 diacid])HQ[Aib]DFVE[4Pal]LLATGPSSGAPPPS-NH2
modifications: N-terminus assumed
SMILES: CC[C@H](C)[C@H](NC(=O)[C@H](Cc1ccccc1)NC(=O)[C@@H](NC(=O)CNC(=O)[C@H](CCC(=O)O)NC(=O)C(C)(C)NC(=O)[C@@H](N)Cc1ccc(O)cc1)[C@@H](C)O)C(=O)N[C@@H](CO)C(=O)N[C@@H](CC(=O)O)C(=O)N[C@@H](Cc1ccc(O)cc1)C(=O)N[C@@H](CO)C(=O)N[C@H](C(=O)N[C@@](C)(CC(C)C)C(=O)N[C@@H](CC(C)C)C(=O)N[C@@H](CC(=O)O)C(=O)N[C@@H](CCC(=O)O)C(=O)N[C@@H](CCCCNC(=O)COCCOCCNC(=O)COCCOCCNC(=O)CC[C@H](NC(=O)CCCCCCCCCCCCCCCCCCC(=O)O)C(=O)O)C(=O)N[C@@H](Cc1c[nH]cn1)C(=O)N[C@@H](CCC(N)=O)C(=O)NC(C)(C)C(=O)N[C@@H](CC(=O)O)C(=O)N[C@@H](Cc1ccccc1)C(=O)N[C@H](C(=O)N[C@@H](CCC(=O)O)C(=O)N[C@@H](Cc1ccncc1)C(=O)N[C@@H](CC(C)C)C(=O)N[C@@H](CC(C)C)C(=O)N[C@@H](C)C(=O)N[C@H](C(=O)NCC(=O)N1CCC[C@H]1C(=O)N[C@@H](CO)C(=O)N[C@@H](CO)C(=O)NCC(=O)N[C@@H](C)C(=O)N1CCC[C@H]1C(=O)N1CCC[C@H]1C(=O)N1CCC[C@H]1C(=O)N[C@@H](CO)C(N)=O)[C@@H](C)O)C(C)C)[C@@H](C)CC
B2: Example 84 (peptide)
peptide: Y[Aib]EGTFISDYSI[αMeL]LDEK([AEEA-AEEA-γGlu-C20 diacid])HQ[Aib]DFVE[4Pal]LLAQGPSSGAPPPS-NH2
modifications: N-terminus assumed
SMILES: CC[C@H](C)[C@H](NC(=O)[C@H](Cc1ccccc1)NC(=O)[C@@H](NC(=O)CNC(=O)[C@H](CCC(=O)O)NC(=O)C(C)(C)NC(=O)[C@@H](N)Cc1ccc(O)cc1)[C@@H](C)O)C(=O)N[C@@H](CO)C(=O)N[C@@H](CC(=O)O)C(=O)N[C@@H](Cc1ccc(O)cc1)C(=O)N[C@@H](CO)C(=O)N[C@H](C(=O)N[C@@](C)(CC(C)C)C(=O)N[C@@H](CC(C)C)C(=O)N[C@@H](CC(=O)O)C(=O)N[C@@H](CCC(=O)O)C(=O)N[C@@H](CCCCNC(=O)COCCOCCNC(=O)COCCOCCNC(=O)CC[C@H](NC(=O)CCCCCCCCCCCCCCCCCCC(=O)O)C(=O)O)C(=O)N[C@@H](Cc1c[nH]cn1)C(=O)N[C@@H](CCC(N)=O)C(=O)NC(C)(C)C(=O)N[C@@H](CC(=O)O)C(=O)N[C@@H](Cc1ccccc1)C(=O)N[C@H](C(=O)N[C@@H](CCC(=O)O)C(=O)N[C@@H](Cc1ccncc1)C(=O)N[C@@H](CC(C)C)C(=O)N[C@@H](CC(C)C)C(=O)N[C@@H](C)C(=O)N[C@@H](CCC(N)=O)C(=O)NCC(=O)N1CCC[C@H]1C(=O)N[C@@H](CO)C(=O)N[C@@H](CO)C(=O)NCC(=O)N[C@@H](C)C(=O)N1CCC[C@H]1C(=O)N1CCC[C@H]1C(=O)N1CCC[C@H]1C(=O)N[C@@H](CO)C(N)=O)C(C)C)[C@@H](C)CC
B3: Example 85 (peptide)
peptide: Y[Aib]EGTFISDYSI[αMeL]LDEK([AEEA-AEEA-γGlu-C20 diacid])HQ[Aib]DFVE[4Pal]LLAAGPSSGAPPPS-NH2
modifications: N-terminus assumed
SMILES: CC[C@H](C)[C@H](NC(=O)[C@H](Cc1ccccc1)NC(=O)[C@@H](NC(=O)CNC(=O)[C@H](CCC(=O)O)NC(=O)C(C)(C)NC(=O)[C@@H](N)Cc1ccc(O)cc1)[C@@H](C)O)C(=O)N[C@@H](CO)C(=O)N[C@@H](CC(=O)O)C(=O)N[C@@H](Cc1ccc(O)cc1)C(=O)N[C@@H](CO)C(=O)N[C@H](C(=O)N[C@@](C)(CC(C)C)C(=O)N[C@@H](CC(C)C)C(=O)N[C@@H](CC(=O)O)C(=O)N[C@@H](CCC(=O)O)C(=O)N[C@@H](CCCCNC(=O)COCCOCCNC(=O)COCCOCCNC(=O)CC[C@H](NC(=O)CCCCCCCCCCCCCCCCCCC(=O)O)C(=O)O)C(=O)N[C@@H](Cc1c[nH]cn1)C(=O)N[C@@H](CCC(N)=O)C(=O)NC(C)(C)C(=O)N[C@@H](CC(=O)O)C(=O)N[C@@H](Cc1ccccc1)C(=O)N[C@H](C(=O)N[C@@H](CCC(=O)O)C(=O)N[C@@H](Cc1ccncc1)C(=O)N[C@@H](CC(C)C)C(=O)N[C@@H](CC(C)C)C(=O)N[C@@H](C)C(=O)N[C@@H](C)C(=O)NCC(=O)N1CCC[C@H]1C(=O)N[C@@H](CO)C(=O)N[C@@H](CO)C(=O)NCC(=O)N[C@@H](C)C(=O)N1CCC[C@H]1C(=O)N1CCC[C@H]1C(=O)N1CCC[C@H]1C(=O)N[C@@H](CO)C(N)=O)C(C)C)[C@@H](C)CC
B4: Example 81 (peptide)
peptide: Y[Aib]EGTFISDYSI[αMeL]LD[Orn]K([AEEA-AEEA-γGlu-C20 diacid])HQ[Aib]DFVE[4Pal]LLEQGPSSGAPPPS-NH2
modifications: N-terminus assumed
SMILES: CC[C@H](C)[C@H](NC(=O)[C@H](Cc1ccccc1)NC(=O)[C@@H](NC(=O)CNC(=O)[C@H](CCC(=O)O)NC(=O)C(C)(C)NC(=O)[C@@H](N)Cc1ccc(O)cc1)[C@@H](C)O)C(=O)N[C@@H](CO)C(=O)N[C@@H](CC(=O)O)C(=O)N[C@@H](Cc1ccc(O)cc1)C(=O)N[C@@H](CO)C(=O)N[C@H](C(=O)N[C@@](C)(CC(C)C)C(=O)N[C@@H](CC(C)C)C(=O)N[C@@H](CC(=O)O)C(=O)N[C@@H](CCCN)C(=O)N[C@@H](CCCCNC(=O)COCCOCCNC(=O)COCCOCCNC(=O)CC[C@H](NC(=O)CCCCCCCCCCCCCCCCCCC(=O)O)C(=O)O)C(=O)N[C@@H](Cc1c[nH]cn1)C(=O)N[C@@H](CCC(N)=O)C(=O)NC(C)(C)C(=O)N[C@@H](CC(=O)O)C(=O)N[C@@H](Cc1ccccc1)C(=O)N[C@H](C(=O)N[C@@H](CCC(=O)O)C(=O)N[C@@H](Cc1ccncc1)C(=O)N[C@@H](CC(C)C)C(=O)N[C@@H](CC(C)C)C(=O)N[C@@H](CCC(=O)O)C(=O)N[C@@H](CCC(N)=O)C(=O)NCC(=O)N1CCC[C@H]1C(=O)N[C@@H](CO)C(=O)N[C@@H](CO)C(=O)NCC(=O)N[C@@H](C)C(=O)N1CCC[C@H]1C(=O)N1CCC[C@H]1C(=O)N1CCC[C@H]1C(=O)N[C@@H](CO)C(N)=O)C(C)C)[C@@H](C)CC
B5: Example 82 (peptide)
peptide: Y[Aib]EGTFISDYSI[αMeL]LD[Orn]K([AEEA-AEEA-γGlu-C20 diacid])HQ[Aib]DFVE[4Pal]LLEGGPSSGAPPPS-NH2
modifications: N-terminus assumed
SMILES: CC[C@H](C)[C@H](NC(=O)[C@H](Cc1ccccc1)NC(=O)[C@@H](NC(=O)CNC(=O)[C@H](CCC(=O)O)NC(=O)C(C)(C)NC(=O)[C@@H](N)Cc1ccc(O)cc1)[C@@H](C)O)C(=O)N[C@@H](CO)C(=O)N[C@@H](CC(=O)O)C(=O)N[C@@H](Cc1ccc(O)cc1)C(=O)N[C@@H](CO)C(=O)N[C@H](C(=O)N[C@@](C)(CC(C)C)C(=O)N[C@@H](CC(C)C)C(=O)N[C@@H](CC(=O)O)C(=O)N[C@@H](CCCN)C(=O)N[C@@H](CCCCNC(=O)COCCOCCNC(=O)COCCOCCNC(=O)CC[C@H](NC(=O)CCCCCCCCCCCCCCCCCCC(=O)O)C(=O)O)C(=O)N[C@@H](Cc1c[nH]cn1)C(=O)N[C@@H](CCC(N)=O)C(=O)NC(C)(C)C(=O)N[C@@H](CC(=O)O)C(=O)N[C@@H](Cc1ccccc1)C(=O)N[C@H](C(=O)N[C@@H](CCC(=O)O)C(=O)N[C@@H](Cc1ccncc1)C(=O)N[C@@H](CC(C)C)C(=O)N[C@@H](CC(C)C)C(=O)N[C@@H](CCC(=O)O)C(=O)NCC(=O)NCC(=O)N1CCC[C@H]1C(=O)N[C@@H](CO)C(=O)N[C@@H](CO)C(=O)NCC(=O)N[C@@H](C)C(=O)N1CCC[C@H]1C(=O)N1CCC[C@H]1C(=O)N1CCC[C@H]1C(=O)N[C@@H](CO)C(N)=O)C(C)C)[C@@H](C)CC
B6: Example 80 (peptide)
peptide: Y[Aib]EGTFISDYSI[αMeL]LD[Orn]K([AEEA-AEEA-γGlu-C20 diacid])HQ[Aib]DFVE[4Pal]LLETGPSSGAPPPS-NH2
modifications: N-terminus assumed
SMILES: CC[C@H](C)[C@H](NC(=O)[C@H](Cc1ccccc1)NC(=O)[C@@H](NC(=O)CNC(=O)[C@H](CCC(=O)O)NC(=O)C(C)(C)NC(=O)[C@@H](N)Cc1ccc(O)cc1)[C@@H](C)O)C(=O)N[C@@H](CO)C(=O)N[C@@H](CC(=O)O)C(=O)N[C@@H](Cc1ccc(O)cc1)C(=O)N[C@@H](CO)C(=O)N[C@H](C(=O)N[C@@](C)(CC(C)C)C(=O)N[C@@H](CC(C)C)C(=O)N[C@@H](CC(=O)O)C(=O)N[C@@H](CCCN)C(=O)N[C@@H](CCCCNC(=O)COCCOCCNC(=O)COCCOCCNC(=O)CC[C@H](NC(=O)CCCCCCCCCCCCCCCCCCC(=O)O)C(=O)O)C(=O)N[C@@H](Cc1c[nH]cn1)C(=O)N[C@@H](CCC(N)=O)C(=O)NC(C)(C)C(=O)N[C@@H](CC(=O)O)C(=O)N[C@@H](Cc1ccccc1)C(=O)N[C@H](C(=O)N[C@@H](CCC(=O)O)C(=O)N[C@@H](Cc1ccncc1)C(=O)N[C@@H](CC(C)C)C(=O)N[C@@H](CC(C)C)C(=O)N[C@@H](CCC(=O)O)C(=O)N[C@H](C(=O)NCC(=O)N1CCC[C@H]1C(=O)N[C@@H](CO)C(=O)N[C@@H](CO)C(=O)NCC(=O)N[C@@H](C)C(=O)N1CCC[C@H]1C(=O)N1CCC[C@H]1C(=O)N1CCC[C@H]1C(=O)N[C@@H](CO)C(N)=O)[C@@H](C)O)C(C)C)[C@@H](C)CC

molecular target: T1, human glucose-dependent insulinotropic …; test: cell-based or functional assay

Binder	hGIPR cAMP Rel EC50 [nM]
B1	0.0432
B2	0.034
B3	0.0359
B4	0.0282
B5	0.0391
B6	0.0777

molecular target: human glucagon receptor (human, UniProt P47871 26-477); test: cell-based or functional assay
Sequence (P47871 26-477): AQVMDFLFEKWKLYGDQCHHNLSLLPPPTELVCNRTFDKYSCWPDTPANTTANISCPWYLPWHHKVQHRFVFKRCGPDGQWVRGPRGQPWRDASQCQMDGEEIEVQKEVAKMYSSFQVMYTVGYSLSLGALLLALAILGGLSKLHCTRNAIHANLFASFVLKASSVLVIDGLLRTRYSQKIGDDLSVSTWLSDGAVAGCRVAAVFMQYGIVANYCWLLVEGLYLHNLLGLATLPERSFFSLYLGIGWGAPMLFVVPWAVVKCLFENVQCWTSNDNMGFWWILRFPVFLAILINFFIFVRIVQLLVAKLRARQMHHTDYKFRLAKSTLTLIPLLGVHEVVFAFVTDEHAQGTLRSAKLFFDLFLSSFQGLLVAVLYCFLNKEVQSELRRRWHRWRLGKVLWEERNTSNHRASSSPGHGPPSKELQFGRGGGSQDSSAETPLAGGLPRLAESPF

Binder	hGcgR cAMP Rel EC50 [µM]
B1	> 5
B2	> 5
B3	> 5
B4	> 5
B5	3.79
B6	> 5

molecular target: human GLP-1 receptor (human, UniProt P43220 24-463); test: cell-based or functional assay

Binder	hGLP1R cAMP Rel EC50 [µM]
B1	> 5
B2	> 5
B3	> 5
B4	> 5
B5	> 5
B6	> 5
